Active and inactive are the calls of the source. The calls are words filed in the database; no cut-off is given here.
Assays:
[1] = test system: Pseudomonas aeruginosa; test: Inhibition of Pseudomonas aeruginosa Metallo-beta-lactamase assessed as decrease in biapenem resistance rate at 32 ug/ml
[2] = test system: Pseudomonas aeruginosa; test: Inhibition of Pseudomonas aeruginosa Metallo-beta-lactamase assessed as potentiation of piperacillin antimicrobial activity
[3] = test system: Pseudomonas aeruginosa; test: Inhibition of Pseudomonas aeruginosa Metallo-beta-lactamase assessed as potentiation of aztreonam antimicrobial activity
[4] = test system: Pseudomonas aeruginosa; test: Inhibition of Pseudomonas aeruginosa Metallo-beta-lactamase assessed as increase in biapenem susceptible rate at 32 ug/ml; design: scale not given: the % may be the effect or the level left
[5] = test system: C[C@@H](O)[C@H]1C(=O)N2C(C(=O)[O-])=C(SC3Cn4cnc[n+]4C3)[C@H](C)[C@H]12; test: (§1) Ratio of Kcat to Km for Pseudomonas aeruginosa beta-lactamaseVIM-2 by UV spectrophotometric analysis
[6] = test system: C[C@@H](O)[C@H]1C(=O)N2C(C(=O)O)=C(SCCNC=N)C[C@H]12; test: as §1
[7] = test system: C[C@@H](O)[C@H]1C(=O)N2C(C(=O)[O-])=C(SC3Cn4cnc[n+]4C3)[C@H](C)[C@H]12; test: (§2) Activity of Pseudomonas aeruginosa beta-lactamase VIM-2 by UV spectrophotometric analysis
[8] = test system: C[C@@H](O)[C@H]1C(=O)N2C(C(=O)O)=C(SCCNC=N)C[C@H]12; test: as §2

Molecule: CC/C(C(=O)O)=C(\CC)C(=O)O
- inhibition [1]: 40%
- Activity [2]: inactive
- Activity [3]: inactive
- Activity [4]: 22%

Molecule: Beta-lactamase VIM-2 (Pseudomonas aeruginosa) (from UniProt Q9K2N0)
- kcat/Km [5]: 500000 M⁻¹ s⁻¹
- kcat/Km [6]: 1.2e+07 M⁻¹ s⁻¹
- Km [7]: 24.7 µM
- kcat [7]: 12.4 s⁻¹
- Km [8]: 8.5 µM
- kcat [8]: 98.9 s⁻¹

From ChEMBL document CHEMBL1671717, “In vitro potentiation of carbapenems with ME1071, a novel metallo-beta-lactamase inhibitor, against metallo-beta-lactamase- producing Pseudomonas aeruginosa clinical isolates” (Antimicrob Agents Chemother, 2010)
